Literature values as cited in article PMC4474783.

What was measured:
[1] = target: calreticulin 189-288 (Homo sapiens) (UniProt P27797)
[2] = target: calnexin P-domain (Homo sapiens) (UniProt P27824); test: ITC
[3] = target: calreticulin (Homo sapiens) (UniProt P27797)
[4] = target: calnexin (Homo sapiens) (UniProt P27824)

Substance | Kd [1] [µM] | Kd [2] [µM] | Kd [3] [µM] | Kd [4] [µM]
ERp57 (from UniProt P30101) | 9 | 26 | – | –
CypB (from UniProt P23284) | – | – | 10 | 10
